Experimental data taken from the supplement of paper PMC6757056.
± gives the standard deviation of the averaged measurements.

B1: library; a variant is named by its letters at N, in order (parent)
chain: GCUGUCACCGAGAAACUGUGAAGUAUAUCUUAAACCUGGGCACUUAAAAGAUAUAUGGAGUUAGUAGUGCAACCUGCUCGGUCUGAUGAGUCCNNNNNNGGACGAAACAGC

Experiments:
[1] = variants of: B1; assay: normalized RNA/DNA level without ligand (relative to sTRSVctl = 100) (log10 (% of sTRSVctl)); HEK293T; ligand: cyclic di-GMP (c-di-GMP-II aptamer); higher = less ribozyme self-cleavage, higher mRNA level; settings: reporter: mCherry (pCS4076), ligand present: no
In short: (§1)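 Ribozyme switch library plasmids linked to reporters were introduced into HEK293T cells at 4 µg per 6-well well, with ligand, if any, added 1 h before. Total RNA was extracted with EDTA 72 h later, reverse-transcribed, amplified, barcoded and sequenced. RNA level was computed from RNA over DNA reads relative to a spiked-in non-cleaving sequence or the top sequences, then scaled and log-transformed. The top set was 25 sequences, values were ×100 and log10, and the cutoff was ≥100 DNA reads.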

[2] = variants of: B1; assay: normalized RNA/DNA level with ligand (relative to sTRSVctl = 100) (log10 (% of sTRSVctl)); HEK293T; ligand: cyclic di-GMP (c-di-GMP-II aptamer); ligand concentration (+) RNA-Seq: 1 mM; higher = less ribozyme self-cleavage, higher mRNA level; settings: reporter: mCherry (pCS4076), ligand present: yes
In short: as §1

Variant | normalized RNA/DNA level without ligand (log10) [1] | normalized RNA/DNA level with ligand (log10) [2]
GCUGUCACCGAGAAACUGUGAAGUAUAUCUUAAACCUGGGCACUUAAAAGAUAUAUGGAGUUAGUAGUGCAACCUGCUCGGUCUGAUGAGUCCGUACCCGGACGAAACAGC | 1.75 ± 0.058 | 1.88 ± 0.097
GCUGUCACCGAGAAACUGUGAAGUAUAUCUUAAACCUGGGCACUUAAAAGAUAUAUGGAGUUAGUAGUGCAACCUGCUCGGUCUGAUGAGUCCUUGUCCGGACGAAACAGC | 1.8 ± 0.026 | 1.89 ± 0.098
GCUGUCACCGAGAAACUGUGAAGUAUAUCUUAAACCUGGGCACUUAAAAGAUAUAUGGAGUUAGUAGUGCAACCUGCUCGGUCUGAUGAGUCCAUGUGGGGACGAAACAGC | 1.59 ± 0.051 | 1.72 ± 0.081
GCUGUCACCGAGAAACUGUGAAGUAUAUCUUAAACCUGGGCACUUAAAAGAUAUAUGGAGUUAGUAGUGCAACCUGCUCGGUCUGAUGAGUCCUAUGUGGGACGAAACAGC | 1.71 ± 0.047 | 1.86 ± 0.13
GCUGUCACCGAGAAACUGUGAAGUAUAUCUUAAACCUGGGCACUUAAAAGAUAUAUGGAGUUAGUAGUGCAACCUGCUCGGUCUGAUGAGUCCGUCAAGGGACGAAACAGC | 1.57 ± 0.031 | 1.75 ± 0.077
GCUGUCACCGAGAAACUGUGAAGUAUAUCUUAAACCUGGGCACUUAAAAGAUAUAUGGAGUUAGUAGUGCAACCUGCUCGGUCUGAUGAGUCCGCCGUAGGACGAAACAGC | 1.57 ± 0.099 | 1.74 ± 0.068
GCUGUCACCGAGAAACUGUGAAGUAUAUCUUAAACCUGGGCACUUAAAAGAUAUAUGGAGUUAGUAGUGCAACCUGCUCGGUCUGAUGAGUCCACUCCGGGACGAAACAGC | 1.746 ± 0.0086 | 1.83 ± 0.15
GCUGUCACCGAGAAACUGUGAAGUAUAUCUUAAACCUGGGCACUUAAAAGAUAUAUGGAGUUAGUAGUGCAACCUGCUCGGUCUGAUGAGUCCGUUCUUGGACGAAACAGC | 1.7 ± 0.084 | 1.84 ± 0.12
GCUGUCACCGAGAAACUGUGAAGUAUAUCUUAAACCUGGGCACUUAAAAGAUAUAUGGAGUUAGUAGUGCAACCUGCUCGGUCUGAUGAGUCCCUUGCGGGACGAAACAGC | 1.78 ± 0.02 | 1.86 ± 0.12
GCUGUCACCGAGAAACUGUGAAGUAUAUCUUAAACCUGGGCACUUAAAAGAUAUAUGGAGUUAGUAGUGCAACCUGCUCGGUCUGAUGAGUCCCAGAUCGGACGAAACAGC | 1.61 ± 0.03 | 1.71 ± 0.18
GCUGUCACCGAGAAACUGUGAAGUAUAUCUUAAACCUGGGCACUUAAAAGAUAUAUGGAGUUAGUAGUGCAACCUGCUCGGUCUGAUGAGUCCAUUGAUGGACGAAACAGC | 1.63 ± 0.029 | 1.79 ± 0.061
GCUGUCACCGAGAAACUGUGAAGUAUAUCUUAAACCUGGGCACUUAAAAGAUAUAUGGAGUUAGUAGUGCAACCUGCUCGGUCUGAUGAGUCCUCUAUAGGACGAAACAGC | 1.56 ± 0.067 | 1.74 ± 0.12
GCUGUCACCGAGAAACUGUGAAGUAUAUCUUAAACCUGGGCACUUAAAAGAUAUAUGGAGUUAGUAGUGCAACCUGCUCGGUCUGAUGAGUCCCAUGCCGGACGAAACAGC | 1.79 ± 0.029 | 1.89 ± 0.15
GCUGUCACCGAGAAACUGUGAAGUAUAUCUUAAACCUGGGCACUUAAAAGAUAUAUGGAGUUAGUAGUGCAACCUGCUCGGUCUGAUGAGUCCAACCGUGGACGAAACAGC | 1.54 ± 0.056 | 1.74 ± 0.091
GCUGUCACCGAGAAACUGUGAAGUAUAUCUUAAACCUGGGCACUUAAAAGAUAUAUGGAGUUAGUAGUGCAACCUGCUCGGUCUGAUGAGUCCAUCCCCGGACGAAACAGC | 1.8 ± 0.048 | 1.92 ± 0.099
GCUGUCACCGAGAAACUGUGAAGUAUAUCUUAAACCUGGGCACUUAAAAGAUAUAUGGAGUUAGUAGUGCAACCUGCUCGGUCUGAUGAGUCCUUAACAGGACGAAACAGC | 1.7 ± 0.019 | 1.8 ± 0.091
GCUGUCACCGAGAAACUGUGAAGUAUAUCUUAAACCUGGGCACUUAAAAGAUAUAUGGAGUUAGUAGUGCAACCUGCUCGGUCUGAUGAGUCCAAGUACGGACGAAACAGC | 1.657 ± 0.007 | 1.8 ± 0.14
GCUGUCACCGAGAAACUGUGAAGUAUAUCUUAAACCUGGGCACUUAAAAGAUAUAUGGAGUUAGUAGUGCAACCUGCUCGGUCUGAUGAGUCCGAUGCCGGACGAAACAGC | 1.772 ± 0.014 | 1.84 ± 0.1
GCUGUCACCGAGAAACUGUGAAGUAUAUCUUAAACCUGGGCACUUAAAAGAUAUAUGGAGUUAGUAGUGCAACCUGCUCGGUCUGAUGAGUCCUCGCUGGGACGAAACAGC | 1.69 ± 0.0043 | 1.84 ± 0.082
GCUGUCACCGAGAAACUGUGAAGUAUAUCUUAAACCUGGGCACUUAAAAGAUAUAUGGAGUUAGUAGUGCAACCUGCUCGGUCUGAUGAGUCCCGAAUGGGACGAAACAGC | 1.66 ± 0.019 | 1.85 ± 0.047
GCUGUCACCGAGAAACUGUGAAGUAUAUCUUAAACCUGGGCACUUAAAAGAUAUAUGGAGUUAGUAGUGCAACCUGCUCGGUCUGAUGAGUCCAGGCGGGGACGAAACAGC | 1.79 ± 0.026 | 1.88 ± 0.063
GCUGUCACCGAGAAACUGUGAAGUAUAUCUUAAACCUGGGCACUUAAAAGAUAUAUGGAGUUAGUAGUGCAACCUGCUCGGUCUGAUGAGUCCGCUGGGGGACGAAACAGC | 1.56 ± 0.029 | 1.71 ± 0.15
GCUGUCACCGAGAAACUGUGAAGUAUAUCUUAAACCUGGGCACUUAAAAGAUAUAUGGAGUUAGUAGUGCAACCUGCUCGGUCUGAUGAGUCCUUGAGUGGACGAAACAGC | 1.7248 ± 0.00016 | 1.83 ± 0.15
GCUGUCACCGAGAAACUGUGAAGUAUAUCUUAAACCUGGGCACUUAAAAGAUAUAUGGAGUUAGUAGUGCAACCUGCUCGGUCUGAUGAGUCCCGAUGUGGACGAAACAGC | 1.75 ± 0.025 | 1.91 ± 0.11
GCUGUCACCGAGAAACUGUGAAGUAUAUCUUAAACCUGGGCACUUAAAAGAUAUAUGGAGUUAGUAGUGCAACCUGCUCGGUCUGAUGAGUCCAUUGCUGGACGAAACAGC | 1.73 ± 0.047 | 1.88 ± 0.081
GCUGUCACCGAGAAACUGUGAAGUAUAUCUUAAACCUGGGCACUUAAAAGAUAUAUGGAGUUAGUAGUGCAACCUGCUCGGUCUGAUGAGUCCACGACAGGACGAAACAGC | 1.52 ± 0.087 | 1.74 ± 0.085
